Experimental findings from paper PMC13095444, “Discovery of RGS2-FBXO44 interaction inhibitors using a cell-based NanoBit assay” (Molecular Pharmacology, 2025) are described below.

The target of the test is T1, RGS2-SmBiT (UniProt P41220 1-211).
T1 construct: Regulator of G protein signaling 2 (RGS2); cloned in-house into pBiT2.3-C[CMV/SmBiT/Blast]; The linker between RGS2 and SmBiT is not described; In the BiBiT construct RGS2-SmBiT and LgBiT-FBXO44 are expressed from one plasmid with a bidirectional CMV promoter; also called C-terminally tagged RGS2; source: HEK-293T, transiently transfected, in live cells; not shown: SmBiT, C-terminal, kept
T1 sequence (looked up): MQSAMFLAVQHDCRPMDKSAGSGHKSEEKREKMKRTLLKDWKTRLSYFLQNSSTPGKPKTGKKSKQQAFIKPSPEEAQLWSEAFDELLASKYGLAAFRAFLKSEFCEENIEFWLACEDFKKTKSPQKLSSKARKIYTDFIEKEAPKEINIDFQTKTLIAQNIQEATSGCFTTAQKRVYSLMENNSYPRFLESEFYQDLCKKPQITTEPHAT
Nature of the test: split reporter (BiFC, NanoBiT); NanoBiT luminescence in live, transiently transfected HEK-293T cells; every combination of RGS2 and FBXO44 NanoBiT constructs; 15,000 cells/well, 2 hours incubation. As to conditions: partners not purified.

B1: LgBiT-FBXO44 (natural protein, UniProt Q9H4M3 1-255, looked up)
chain: MAVGNINELPENILLELFTHVPARQLLLNCRLVCSLWRDLIDLVTLWKRKCLREGFITEDWDQPVADWKIFYFLRSLHRNLLHNPCAEEGFEFWSLDVNGGDEWKVEDLSRDQRKEFPNDQVKKYFVTSYYTCLKSQVVDLKAEGYWEELMDTTRPDIEVKDWFAARPDCGSKYQLCVQLLSSAHAPLGTFQPDPATIQQKSDAKWREVSHTFSNYPPGVRYIWFQHGGVDTHYWAGWYGPRVTNSSITIGPPLP
notes: F-box Only Protein 44 (FBXO44); cloned in-house into pBiT1.3-N[CMV/LgBiT/Hygro]; The linker between LgBiT and FBXO44 is not described; also called N-terminally tagged FBXO44; source: HEK-293T, transiently transfected, in live cells; not shown: LgBiT, N-terminal, kept
Take B1: the “fold luminescence signal against the opposite tagging (RGS2-LgBiT with SmBiT-FBXO44)” value was determined as 3.5 fold.
